We go through one molecule from US20240350615A1 (BEIJING WANTAI BIOLOGICAL PHARMACY ENTERPRISE, published 2024).

The target in this test is T1, polypeptide 2C01 (human rhinovirus (W10 (HRV-C15))).
T1 construct: synthetic peptide coated on the ELISA plate; also called 2C (aa 151-163)
T1 peptide: YSLPPDPKYFDGY
Nature of the test: indirect ELISA, peptide coated 1 ug/well, 9A5 at 2 ug/mL. In general terms: An ELISA detects its analyte on a solid surface through an enzyme-linked reagent.

B1: monoclonal antibody 9A5 (antibody, V domains shown)
VH: EVQLVESGGDLVKPGGSLKLSCAASGFTFSIYGMSWVRQTPDKRLEWVATISSAGIYTYYPDSVKGRFTISRDNAKNTLYLQMSSLKSEDTAMYYCARHGYGLFDVWGAGTTVTVSS
VL: not shown
notes: also called anti-C149-2C01 mouse monoclonal antibody
With B1, the binding result is on record as “binds”.
